From the supplement of paper PMC9233669
Variants at the floor of the assay were thinned out.

Key:
[1] = system: biotinyl-Phe-oxazolone; assay: self-aminoacylation, catalytic enhancement (BFO) (fold over background); higher = more active; k-Seq, kA / k0A0; sequences stand for … in GGGAAUGGAUCCACAUCUACGAAUUC…UUCACUGCAGACUUGACGAAGCUG
Summary of the method: (§1)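 Catalytic enhancement equals the median kA over the uncatalyzed rate, the latter read from the low-activity peak of a bimodal Gaussian fit. Values of kA came from fitting each sequence's fraction reacted to a pseudo-first-order model, with 1000 bootstraps. Reacted RNA was captured with streptavidin and quantified by triplicate qPCR and Illumina sequencing after 90 minutes at room temperature with 2–1250 μM biotinyl-aminoacyl-oxazolone and 0.43 μM mutagenized RNA pools bearing a 21-nt variable region.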

[2] = system: biotinyl-Ile-oxazolone; assay: self-aminoacylation, catalytic enhancement (BIO) (fold over background); higher = more active; k-Seq, kA / k0A0; sequences stand for … in GGGAAUGGAUCCACAUCUACGAAUUC…UUCACUGCAGACUUGACGAAGCUG
Summary of the method: as §1

[3] = system: biotinyl-Val-oxazolone; assay: self-aminoacylation, catalytic enhancement (BVO) (fold over background); higher = more active; k-Seq, kA / k0A0; sequences stand for … in GGGAAUGGAUCCACAUCUACGAAUUC…UUCACUGCAGACUUGACGAAGCUG
Summary of the method: as §1

[4] = system: biotinyl-Trp-oxazolone; assay: self-aminoacylation, catalytic enhancement (BWO) (fold over background); higher = more active; k-Seq, kA / k0A0; sequences stand for … in GGGAAUGGAUCCACAUCUACGAAUUC…UUCACUGCAGACUUGACGAAGCUG
Summary of the method: as §1

[5] = system: biotinyl-Met-oxazolone; assay: self-aminoacylation, catalytic enhancement (BMO) (fold over background); higher = more active; k-Seq, kA / k0A0; sequences stand for … in GGGAAUGGAUCCACAUCUACGAAUUC…UUCACUGCAGACUUGACGAAGCUG
Summary of the method: as §1

[6] = system: biotinyl-Leu-oxazolone; assay: self-aminoacylation, catalytic enhancement (BLO) (fold over background); higher = more active; k-Seq, kA / k0A0; sequences stand for … in GGGAAUGGAUCCACAUCUACGAAUUC…UUCACUGCAGACUUGACGAAGCUG
Summary of the method: as §1

Sequence	self-aminoacylation [1]	self-aminoacylation [2]	self-aminoacylation [3]	self-aminoacylation [4]	self-aminoacylation [5]	self-aminoacylation [6]
CCUCACAUCAAGCAAUCGGUC [Fam1B.1 aminoacylation ribozyme variant]	1.77	0.87	0.973	1.05	0.749	0.726
CCUCACUUCAAGCAAUCGCUC [Fam1B.1 aminoacylation ribozyme variant]	1.27	1.16	1.18	0.912	1.15	1.36
CCUCACUUCAAGCAAUCGGCC [Fam1B.1 aminoacylation ribozyme variant]	5.49	1.9	2.39	5.38	1.53	1.59
CCUCACUUCAAGCAAUCGGUC [Fam1B.1 aminoacylation ribozyme variant]	55.7	1.07	1.21	22.4	1.07	1.58
CCUCACUUCAAGCAAUCGGUU [Fam1B.1 aminoacylation ribozyme variant]	9.36	1.34	1.61	6.83	1.45	1.7
CCUCACUUCAAGCAAUCUGUC [Fam1B.1 aminoacylation ribozyme variant]	1.03	0.458	0.515	0.563	0.343	0.313
CCUCACUUCAAGCAAUUGGUC [Fam1B.1 aminoacylation ribozyme variant]	1.67	0.654	0.606	0.673	0.562	0.506
CCUCACUUCAGGCAAUCGGUC [Fam1B.1 aminoacylation ribozyme variant]	1.59	0.856	0.932	0.952	0.951	0.947
CCUCACUUCGAGCAAUCGGUC [Fam1B.1 aminoacylation ribozyme variant]	2.23	1.08	1.04	1.16	0.881	1.04
CCUCAGUUCAAGCAAUCGGUC [Fam1B.1 aminoacylation ribozyme variant]	5.46	1.12	1.03	3.37	1.17	1.36
CGACACAUCAAGCAAUCGGUC [Fam1B.1 aminoacylation ribozyme variant]	1.47	1.01	1.13	0.828	0.811	1.09
CGACACUACAAGCAAUCGGUC [Fam1B.1 aminoacylation ribozyme variant]	0.638	0.935	1	0.675	0.769	0.755
CGACACUUCAACCAAUCGGUC [Fam1B.1 aminoacylation ribozyme variant]	18.2	1.38	1.6	13.4	1.61	1.65
CGACACUUCAAGCAAACGGUC [Fam1B.1 aminoacylation ribozyme variant]	0.979	0.814	0.76	0.612	0.687	0.537
CGACACUUCAAGCAAUCGGCC [Fam1B.1 aminoacylation ribozyme variant]	3.39	3.11	3.32	3.53	1.79	2.84
CGACACUUCAAGGAAUCGGUC [Fam1B.1 aminoacylation ribozyme variant]	3.19	2.39	1.73	1.84	1.42	1.89
CGACAUUUCAAGCAAUCGGUC [Fam1B.1 aminoacylation ribozyme variant]	1.28	1.18	1.17	1.33	1.09	1.06
CGACGUCAAACAAUCGGUCUG [Fam1A.1 aminoacylation ribozyme variant]	4.02	1.25	1.66	1.82	1.84	1.24
CGACUACAAACAAUCGGUCUG [Fam1A.1 aminoacylation ribozyme variant]	2.44	1.09	1.15	1.31	1.22	0.926
CGACUUCAAACAAUCAGUCUG [Fam1A.1 aminoacylation ribozyme variant]	28.2	0.938	0.893	10.2	1.01	1.27
CGACUUCAAACAAUCGGUAUG [Fam1A.1 aminoacylation ribozyme variant]	10.8	1.09	1.28	5.6	1.16	1.3
CGACUUCAAACAAUCGGUCUC [Fam1A.1 aminoacylation ribozyme variant]	53.8	1.52	1.35	31.1	1.59	1.99
CGACUUCAAACAAUCGGUCUU [Fam1A.1 aminoacylation ribozyme variant]	18.2	1.64	1.71	12.7	1.26	1.77
CGACUUCAAACAAUUGGUCUG [Fam1A.1 aminoacylation ribozyme variant]	1.57	1.06	0.891	1.25	0.91	0.999
CUAAUUCAAACAAACGGUCUG [Fam1A.1 aminoacylation ribozyme variant]	0.687	0.823	0.917	0.543	0.616	0.561
CUAAUUCAAACAAUCGAUCUG [Fam1A.1 aminoacylation ribozyme variant]	0.72	0.604	0.561	0.361	0.43	0.544
